{
  "source": "paper PMC11263391",
  "about": "“Molecular insights into degron recognition by CRL5^ASB7 ubiquitin ligase” (Nature Communications, 2024)",
  "target": "ASB7-Elongin B-Elongin C ternary complex (human), Q9H672",
  "sequence (Q9H672 11-318, chain 1 of 3)": "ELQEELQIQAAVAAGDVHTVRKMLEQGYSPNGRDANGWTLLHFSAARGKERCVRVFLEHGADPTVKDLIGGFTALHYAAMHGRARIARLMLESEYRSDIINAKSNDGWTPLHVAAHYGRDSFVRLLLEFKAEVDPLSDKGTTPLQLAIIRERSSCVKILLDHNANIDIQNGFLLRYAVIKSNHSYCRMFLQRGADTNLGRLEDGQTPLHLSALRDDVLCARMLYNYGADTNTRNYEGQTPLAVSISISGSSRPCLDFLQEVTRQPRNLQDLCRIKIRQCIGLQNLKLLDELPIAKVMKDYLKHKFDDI",
  "sequence (Q15370 1-104, chain 2 of 3, further chain)": "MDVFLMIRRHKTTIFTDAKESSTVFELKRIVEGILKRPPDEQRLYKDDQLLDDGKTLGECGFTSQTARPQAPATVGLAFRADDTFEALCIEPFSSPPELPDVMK",
  "sequence (Q15369 17-112, chain 3 of 3, further chain)": "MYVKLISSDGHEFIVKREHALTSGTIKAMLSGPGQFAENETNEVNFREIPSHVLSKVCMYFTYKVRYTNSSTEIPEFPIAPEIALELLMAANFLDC",
  "assay": "ITC; peptide (0.8–4 mM) titrated into the ASB7 complex (39–156 µM); 16 °C; 20 mM Tris-HCl pH 7.5, 150 mM NaCl; MicroCal PEAQ-ITC",
  "data": [
    {"binder": "ELEKAKQECQDLKGKLEKCCRH (modifications not checked)", "note": "[CEP152-degron 23-residue peptide]", "values": [
      {"measurement": "Kd", "value": 3.8, "unit": "µM"}
    ]},
    {"binder": "ELESLMKEQDLLETKLR (modifications not checked)", "note": "[LZTS1 17-residue degron]", "values": [
      {"measurement": "fold decrease in binding affinity against the LZTS1-degron", "value": 6, "unit": "fold"}
    ]}
  ]
}
